From PMC10571083, “An Analysis of Nucleotide–Amyloid Interactions Reveals Selective Binding to Codon-Sized RNA” come the findings set out here.

No end group written: not given here.

The test system of data set [1] is peptide 7 amyloid (designed). Kind of data set: pelleting/HPLC. To be noted: citrate-phosphate buffer, pH 3 (or pH series), room temperature, overnight, 100 uM peptide with 25 or 50 uM oligo, Kd: 50 uM peptide with 5-200 uM oligo ….
Data set [2] has as its system peptide 4 amyloid (designed). Kind of data set: pelleting/HPLC. To be noted: pH 3, 100 uM peptide, 50 uM RNA; citrate-phosphate buffer, pH 3 (or pH series), room temperature, overnight, 100 uM peptide with 25 or 50 uM oligo; Kd: 50 uM peptide with 5-200 uM oligo ….
The target of data set [3] is T1, VAQAQINI-NH2 amyloid (designed).
T1 chain: VAQAQINI-NH2
Kind of data set: pelleting/HPLC; Bmax 0.147; citrate-phosphate buffer, pH 3 (or pH series), room temperature, overnight, 100 uM peptide with 25 or 50 uM oligo; Kd: 50 uM peptide with 5-200 uM oligo; supern. To be noted: single strand.

As usually defined, the Kd is the free concentration of one partner at which half of the binding sites on the other are occupied at equilibrium, for simple one-to-one binding. Low readings indicate tighter binding, high ones weaker binding. With GUGUG [pGUGUG], the Kd in data set [1] (5' phosphate) is 0.0749 µM. Molecule GUGUGU [[GU]3] registered a Kd in data set [1] of 0.856 µM. With GUGU [pGUGU], the Kd in data set [1] (5' phosphate) worked out at 1.29 µM. In data set [1] (5' phosphate, DNA backbone (printed with U)), GUG [DNA pGUG] showed a Kd of 117 µM. Molecule GUG [pGUG] showed a Kd in data set [1] (5' phosphate) of 82 µM. This molecule yielded a binding signal in data set [1] (pH 3, 100 uM peptide, 25 uM RNA, peptide 7 or 9 not specified, 5' phosphate) above 40 % bound. GUGUGUG [[GU]3G] had a binding signal in data set [2] of 100 % bound. This molecule came in with a Kd in data set [1] of 0.0486 µM.

GUCA (ssRNA, 5' and 3' phosphate) [pGUCAp]: the affinity in data set [3], expressed as Kd, was 1.95 µM.
